The target in the experiment is T1, AtLEGβ catalytic AEP domain (up to the autocatalytic cleavage site Asn333) (Arabidopsis thaliana, UniProt Q39044 22-333).
T1 construct: Arabidopsis thaliana legumain isoform β, catalytic (AEP) domain up to the autocatalytic cleavage site Asn333; Removal of the His6 tag (cleavage within the TEV site) was only observed under very acidic pH conditions; also called catalytic domain; AEPβ
T1 sequence (looked up): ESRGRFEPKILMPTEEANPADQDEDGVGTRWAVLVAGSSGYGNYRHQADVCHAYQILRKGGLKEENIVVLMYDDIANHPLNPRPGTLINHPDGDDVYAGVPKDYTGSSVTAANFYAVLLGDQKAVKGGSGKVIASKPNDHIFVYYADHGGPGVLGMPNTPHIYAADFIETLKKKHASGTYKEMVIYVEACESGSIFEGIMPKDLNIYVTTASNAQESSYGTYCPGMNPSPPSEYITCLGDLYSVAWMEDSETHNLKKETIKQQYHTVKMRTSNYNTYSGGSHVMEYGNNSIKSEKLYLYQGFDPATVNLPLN
Put plainly: SEC; pH 5.0-activated AtLEGβ on an S200 column, 20 mM citric acid pH 5.0, 100 mM NaCl; BSA as size standard. As to conditions: both partners purified.

B1: AtLEGβ AP-LSAM C-terminal fragment (Gln346–Ala486) (domain or fragment, Arabidopsis thaliana, UniProt Q39044 346-486, looked up)
chain: QRDADLLFLWHMYRTSEDGSRKKDDTLKELTETTRHRKHLDASVELIATILFGPTMNVLNLVREPGLPLVDDWECLKSMVRVFEEHCGSLTQYGMKHMRAFANVCNNGVSKELMEEASTAACGGYSEARYTVHPSILGYSA
notes: also called LSAM domain
Take B1: the binding result is reported as “binds”.

For the origin of these results see PMC7489914, “Structural and functional studies of Arabidopsis thaliana legumain beta reveal isoform specific mechanisms of activation and substrate recognition” (The Journal of Biological Chemistry, 2020).
